Laboratory results from patent US20170158755A1 (PROTHENA BIOSCIENCES, published 2017).
Blank lines part the entries; values can stand above or below the binder they belong to.

Key:
human His-laminin-α4 = target: T1, human His-laminin-α4 (human, UniProt Q16363 833-1823, limits assumed); assay: Biacore SPR
T1 construct: Bought His-tagged recombinant protein (R & D Systems); also called Human LAMA4; human His-laminin-α4 (R & D Systems)
T1 sequence: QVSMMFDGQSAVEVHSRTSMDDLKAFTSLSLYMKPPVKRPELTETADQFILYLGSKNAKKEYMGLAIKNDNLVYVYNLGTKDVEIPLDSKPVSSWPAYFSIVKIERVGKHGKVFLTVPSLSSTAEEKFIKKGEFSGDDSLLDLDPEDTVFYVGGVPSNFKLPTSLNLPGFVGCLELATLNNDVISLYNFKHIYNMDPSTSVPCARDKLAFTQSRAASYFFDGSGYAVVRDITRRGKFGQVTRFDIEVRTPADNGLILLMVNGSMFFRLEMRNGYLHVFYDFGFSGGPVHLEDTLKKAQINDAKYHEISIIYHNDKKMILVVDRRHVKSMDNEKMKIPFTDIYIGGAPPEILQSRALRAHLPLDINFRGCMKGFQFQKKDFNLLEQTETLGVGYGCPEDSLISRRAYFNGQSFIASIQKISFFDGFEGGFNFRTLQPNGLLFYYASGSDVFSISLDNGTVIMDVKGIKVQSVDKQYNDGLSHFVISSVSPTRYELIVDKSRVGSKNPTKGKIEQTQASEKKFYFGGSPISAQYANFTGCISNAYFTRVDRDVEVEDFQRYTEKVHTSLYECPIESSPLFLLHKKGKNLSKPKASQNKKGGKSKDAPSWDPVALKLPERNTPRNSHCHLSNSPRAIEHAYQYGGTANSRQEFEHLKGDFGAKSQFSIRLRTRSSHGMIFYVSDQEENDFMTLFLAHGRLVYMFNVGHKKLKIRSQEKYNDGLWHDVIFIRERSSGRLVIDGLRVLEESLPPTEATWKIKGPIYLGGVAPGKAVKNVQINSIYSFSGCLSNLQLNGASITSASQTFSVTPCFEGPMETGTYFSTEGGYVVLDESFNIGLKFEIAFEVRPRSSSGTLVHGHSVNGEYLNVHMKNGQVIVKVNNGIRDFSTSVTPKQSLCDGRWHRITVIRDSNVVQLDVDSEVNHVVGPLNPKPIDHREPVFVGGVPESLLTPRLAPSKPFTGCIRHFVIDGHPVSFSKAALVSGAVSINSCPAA

mouse His-laminin-α4 = target: T2, mouse His-laminin-α4 (mouse, UniProt P97927 826-1816, limits assumed); assay: Biacore SPR
T2 construct: Bought His-tagged recombinant protein; also called Murine LAMA4; recombinant mouse LAMA4-His
T2 sequence (looked up): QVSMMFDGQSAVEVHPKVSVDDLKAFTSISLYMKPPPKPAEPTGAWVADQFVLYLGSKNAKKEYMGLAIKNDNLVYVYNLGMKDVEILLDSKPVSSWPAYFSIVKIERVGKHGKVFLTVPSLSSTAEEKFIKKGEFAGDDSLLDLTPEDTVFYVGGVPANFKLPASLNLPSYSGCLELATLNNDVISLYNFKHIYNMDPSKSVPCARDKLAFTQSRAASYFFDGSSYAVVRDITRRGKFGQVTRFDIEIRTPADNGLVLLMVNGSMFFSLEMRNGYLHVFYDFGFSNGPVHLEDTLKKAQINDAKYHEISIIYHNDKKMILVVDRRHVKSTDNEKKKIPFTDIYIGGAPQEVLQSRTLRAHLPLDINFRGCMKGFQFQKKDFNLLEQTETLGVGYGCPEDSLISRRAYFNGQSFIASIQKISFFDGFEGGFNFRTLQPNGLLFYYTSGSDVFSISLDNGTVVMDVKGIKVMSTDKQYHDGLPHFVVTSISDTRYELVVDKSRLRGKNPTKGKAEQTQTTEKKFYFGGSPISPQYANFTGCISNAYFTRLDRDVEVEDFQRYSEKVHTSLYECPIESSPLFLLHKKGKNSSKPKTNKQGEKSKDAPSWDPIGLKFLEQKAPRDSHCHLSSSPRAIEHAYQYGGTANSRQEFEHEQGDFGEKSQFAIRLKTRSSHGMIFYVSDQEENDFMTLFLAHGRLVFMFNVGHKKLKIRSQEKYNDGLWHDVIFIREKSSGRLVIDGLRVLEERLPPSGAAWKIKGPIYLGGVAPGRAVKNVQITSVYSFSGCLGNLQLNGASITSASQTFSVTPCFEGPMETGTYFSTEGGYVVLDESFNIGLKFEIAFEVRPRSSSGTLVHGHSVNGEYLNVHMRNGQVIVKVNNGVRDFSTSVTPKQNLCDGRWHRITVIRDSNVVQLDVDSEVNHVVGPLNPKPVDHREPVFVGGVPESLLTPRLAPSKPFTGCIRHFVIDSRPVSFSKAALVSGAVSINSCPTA

Kd (human His-laminin-α4): 1.27 nM
koff (human His-laminin-α4): 0.00858 s⁻¹
kon (human His-laminin-α4): 6.72e+06 M⁻¹ s⁻¹
Kd (mouse His-laminin-α4): 0.965 nM
koff (mouse His-laminin-α4): 0.0061 s⁻¹
kon (mouse His-laminin-α4): 6.32e+06 M⁻¹ s⁻¹
B1: mouse monoclonal antibody 19C12 (antibody, V domains shown)
VH: QVQLQQSGAELVKPGASVKISCKASGYAFSTYWMNWVKQRPGEGLEWIGQIYPGDGDTNYNGKFKGKATLTADKSSSTAYMQLSSLTSEDSAVYFCARSDGYYDYWGQGTTLTVSS
VL: NIVLTQSPASLAVSLGQRATISCRASESVDSYGTSFMHWYQQKPGQPPKLLICLASSLESGVPARFSGSGSRTDFTLTIDPVEADDAATYYCQQNNEDPPTFGAGTKLELKR
notes: Mouse hybridoma antibody; Mouse IgG2b was used as its isotype control; also called m19C12

Kd (human His-laminin-α4): 13.3 nM
koff (human His-laminin-α4): 0.00917 s⁻¹
kon (human His-laminin-α4): 610000 M⁻¹ s⁻¹
Kd (mouse His-laminin-α4): 16.1 nM
koff (mouse His-laminin-α4): 0.00947 s⁻¹
kon (mouse His-laminin-α4): 590000 M⁻¹ s⁻¹
B2: mouse monoclonal antibody 1C1 (antibody, V domains shown)
VH: QVQLQQSGAELARPGASVKLSCKASGYTFTNYGISWVKQRTGQGLEWIGAIYPRSGNTYYNEKFKGKATLTADKSSSTAYMELRSLTSEDSAVYFCARERDYGSSYALDYWGQGTSVTVSS
VL: DIVMTQSQKFMSTSVGDRVSVTCKASHNVGTNVAWYQQKPGQSPKPLIYSASYRYSGVPDRFTGSGSGTDFTLTISNVQSEDLADYFCQQFNNYPYTFGGGTKLEIKR
notes: version 1 is written here
